System: MS2 coat protein
Experiment: apparent KD of MS2 coat protein; designed switch direction (-1 OFF switch, 1 ON switch): 1; higher = weaker reporter binding
How it was run: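 Three titration conditions were used: no input, 200 uM small-molecule ligand, and an oligonucleotide input. In each, SNAP-549-labelled MS2 coat protein was raised from 0.7 or 1.5 nM, doubling, to 3 µM over designed RNA switches transcribed on Illumina chips by stalled E. coli RNA polymerase. Curve fits of normalised cluster fluorescence gave values whose per-design median over clusters is the apparent KD.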

[1] = input ligand: microRNA oligo, concentration not stated
[2] = Eterna round: R95, input ligand: FMN 200 uM
[3] = Eterna round: R95, input ligand: microRNA oligo, concentration not stated
[4] = Eterna round: R95, input ligand: none

Sequence | apparent KD of MS2 coat protein (input ligand: FMN 200 uM) | apparent KD of MS2 coat protein [1] | apparent KD of MS2 coat protein (input ligand: none) | apparent KD of MS2 coat protein [2] | apparent KD of MS2 coat protein [3] | apparent KD of MS2 coat protein [4]
UGCUUCGUGUGAGGAUAUGCUGCCGUUUCGGCUGCAGAAGGUACUAUAAUACAUGAGGAUCACCCAUGUCUGUCGGUUUGCGGG [salish99_SSng1_r04_305-lowA] (Eterna round: R96, puzzle: Same State NG 1) | 0.0464 µM | 0.0288 µM | 0.0493 µM |  |  | 
CAGUAUCGCGGAGGAUAUGGGCUGAGACCGGAGCAACUCUGGUCAACAUGAGGAUCACCCAUGUCCCAGAAGGCCGCGAUGCUG [Enquoninso] (Eterna round: R96, puzzle: Same State NG 2) | 0.0184 µM | 0.0622 µM | 0.0961 µM |  |  | 
AGUCCAGAAUAAACUGGACAAAGACAUGUACAUGAGGAUCACCCAUGUCAUGUACAAGUUUUUUGCUCGUCUUAUAA (puzzle: Sensor for hsa-mir-208a) |  |  |  | 0.0399 µM | 0.0104 µM | 0.0372 µM
GAGAGACGAUUAGGAUAUCCGGUGAUAAUGAUAGGAGAAGGAAUUGACAUGAGGAUCACCCAUGUGGGAAUAAUCCAGAGAGAG [Parity 24 - Jieux - Same State NG 1] (Eterna round: R96, puzzle: Same State NG 1) | 0.0865 µM | 0.0665 µM | 0.0897 µM |  |  | 
GGAGCCAAGGCAGGAUAUUCAUAUUAAAACAUGAGGAUCACCCAUGUAAAGGCCAGAAGGCCUUUGGAGAAGGGCCAUGGCUCG [Xeonanis - 13 mod14] (Eterna round: R96, puzzle: Same State NG 2) | 0.0177 µM | 0.015 µM | 0.0244 µM |  |  | 
CUGAGCAGUCAAGGAUAUCACGUCGAUUAGACGUGAGAAGGUGAUCAUUACAUGAGGAUCACCCAUGUGUUACAUGGAGCUCAG [Brourd's SSNG1/1-A2 mod 5] (Eterna round: R96, puzzle: Same State NG 1) | 0.413 µM | 0.0491 µM | 0.358 µM |  |  | 
AGUCCAGCCUGAGCUGGACAAAAGCAUGUACAUGAGGAUCACCCAUGUCAUGUACAAGCUUUUUGCUCGUCUUAAAG [Mat - hsa-mir-208a - Mod of JL - D23] (puzzle: Sensor for hsa-mir-208a) |  |  |  | 0.231 µM | 0.018 µM | 0.312 µM
UUAUCCUUUUUUUACAUGAGGAUCACCCAUGUUUUUCUUACGUAGGAUAUCGUUGUUUUUUUUUACGAGAAGGACGUAGUAUGU [JR_SSND3_Sub062] (Eterna round: R96, puzzle: Same State NG 3) | 0.0358 µM | 0.0304 µM | 0.0365 µM |  |  | 
UGGUACAUGGGAGGAUAUCAUGCAAACAUGAGGAUCACCCAUGUAGCCAUGGAGACAUGGGUAUAUGAGAAGGCCCAUGUACCU [JL SSNG1 3.52] (Eterna round: R96, puzzle: Same State NG 2) | 0.317 µM | 0.0519 µM | 0.0883 µM |  |  | 
AUAAGUCCGAUGCUCGUCUCUCCGUACAAACAUGAGGAUCACCCAUGUGAUCGGGCAGUAGCCCGAUCAGUAUGGCC [Raedre] (puzzle: Sensor for hsa-mir-208a) |  |  |  | 0.0515 µM | 0.0239 µM | 0.0564 µM
GCUACCAUUGAUGCCUACAUGAGGAUCACCCAUGUAUGUAGGCAGGAUAUCGAUUGCUUUGCGAUCGAGAAGGGCUUAGGUAGC [JL SSNG3 1.31] (Eterna round: R96, puzzle: Same State NG 3) | 0.0524 µM | 0.139 µM | 0.183 µM |  |  | 
AGGCUCAGACGAGGAUAUGAUCAUGGCGCUUCGGCGCAUACAUGAGGAUCACCCAUGUAAAGUGAUCAGAAGGCGUCUGAGCCA [SSNG2/7-A1] (Eterna round: R96, puzzle: Same State NG 2) | 0.0123 µM | 0.0145 µM | 0.0142 µM |  |  | 
UUCCUACAUGAGGAUCACCCAUGUGACGCCUCGAUAGGAUAUGCGUGUGCCUUGGCGCAUGCAGAAGGGUUGUAGC [JL Aveso mod 9] (puzzle: Same State 1) |  |  |  | 0.0392 µM | 0.0348 µM | 0.0375 µM
UGUUGUAUUACAGGAUAUCUGUUAUUUUUAUUUAGAGAAGGGUAUUCACAUGAGGAUCACCCAUGUAUAUACGAGGAAGUUGUG [JMF's solution 7] (Eterna round: R96, puzzle: Same State NG 1) |  | 0.0408 µM |  |  |  | 
GCUCGAAUCACAGCCAACAUGAGGAUCACCCAUGUGUGUUGGUAGGAUAUCGUUUCUAAGGGAAACGAGAAGGGCCGAACGAGC [SameState NG3 #9] (Eterna round: R96, puzzle: Same State NG 3) | 0.0315 µM | 0.0392 µM | 0.0521 µM |  |  | 
GGAGCCGGUACUGAGGAUAUUCAUUUUAAAACAUGAGGAUCACCCAUGUAGGCCAGAAGGCCUUGGGAGAAGGCAGAUCGGCUCC [Biseusra - 6] (puzzle: Same State 2) |  |  |  | 0.019 µM | 0.18 µM | 0.281 µM

Sequence | apparent KD of MS2 coat protein (input ligand: FMN 200 uM) | apparent KD of MS2 coat protein [1] | apparent KD of MS2 coat protein (input ligand: none) | apparent KD of MS2 coat protein [2] | apparent KD of MS2 coat protein [3] | apparent KD of MS2 coat protein [4]
GCGGUAACUCACAUGAGGAUCACCCAUGUUCCGGAAACGGCACAGGAUAUCUGUCCGAAAAGGUCAGAGAAGGGUGAAAUCCGC [Fiskers NG3ss - 91] (Eterna round: R96, puzzle: Same State NG 3) | 0.641 µM | 0.29 µM | 0.115 µM |  |  | 
AGUCCAGCCUGAGCUGGACAAGAGCAUGUACAUGAGGAUCACCCAUGUCAUGUACAAGCUUUUUGCUCGUCUUAAAA [Zipper 46 - 2] (puzzle: Sensor for hsa-mir-208a) |  |  |  | 0.493 µM | 0.0143 µM | 0.478 µM
AGUCCAGCAUGAGCUGGACAAAAGCAUGUACAUGAGGAUCACCCAUGUUCAUGUACAAGCUUUUUGCAAGUCAAAAU [Mat - hsa-mir-208a - Mod of JL - 81] (puzzle: Sensor for hsa-mir-208a) |  |  |  | 0.614 µM | 0.0178 µM | 0.595 µM
AAGUAACAUGAGGAUCACCCAUGUGAGGUGAGCGUAGGAUAUCGAGGAGGAAGGGUGGAGCGAGAAGGACGAGAGG [JR_SS1_Sub099] (Eterna round: R96, puzzle: Same State 1) | 0.544 µM | 0.281 µM | 0.386 µM |  |  | 
AAAGUACAUGAGGAUCACCCAUGUCCAAACAAGUAAGGAUAUACGAAAACAAAACAAAAUGUAGAAGGUACAACAA [Same State 1 #2] (puzzle: Same State 1) |  |  |  | 0.0181 µM | 0.0179 µM | 0.0264 µM
AGUCCAGCCUGAGCUGGACAAAAGCAUGUACAUGAGGAUCACCCAUGUUCAUGUACAAGCUUUUUGCUCGUCUGAAU [Mat - hsa-mir-208a - Mod of JL - 47] (puzzle: Sensor for hsa-mir-208a) |  |  |  | 0.709 µM | 0.0199 µM | 0.874 µM
ACAUGAGAGUGAGGAUAUGCUGUACCUACAUGUGACAUGAGGAUCACCCAUGUGGUAAGUAUGACGCAGAAGGCACAGAUAUGU [Equivalance 78 - Jieux - Same State NG 2] (Eterna round: R96, puzzle: Same State NG 2) | 0.0134 µM | 0.0789 µM | 0.103 µM |  |  | 
GGAUGAUAGACAGGAUAUUGAAUGUAAAUAGGACAAGAAGGGUCAAUGAUAUAAACGACCAGUUACAUGAGGAUCACCCAUGUU [JR_SSNG1_Sub023] (Eterna round: R96, puzzle: Same State NG 1) | 0.0371 µM | 0.0305 µM | 0.0389 µM |  |  | 
GCCCGACUCACAGGAUAUGUACCGCCCGAAACAACAGAAGGGUGAGAUCCGGCAUGCACUGACAUGAGGAUCACCCAUGUCCUU [Gebege] (Eterna round: R96, puzzle: Same State NG 1) | 0.52 µM | 0.311 µM | 0.765 µM |  |  | 
ACGUGAGGCGCAGGAUAUACAUGAGGAUCACCCGUAGAAGGGCGCACCCAUAACAUGAGGAUCACCCAUGUUGUCCAUGUCCAU [Same State NG 1 S5] (Eterna round: R96, puzzle: Same State NG 1) | 0.226 µM | 0.158 µM | 0.241 µM |  |  | 
UAGACAAGCUUUAUGUUCUUCCUAUUCCAACAUGAGGAUCACCCAUGUAGUCUGUCGAUUGUGAGUGUAGUUGAGAU [JR_SHM208A_Sub026] (puzzle: Sensor for hsa-mir-208a) |  |  |  | 0.0578 µM | 0.052 µM | 0.0619 µM
UCUUGGUUUUUGCUCGUUUUUUGUGUUGAACAUGAGGAUCACCCAUGUAUUGUACGGUCCAAUUUAAUAAUAGUCCA [JMF 75] (puzzle: Sensor for hsa-mir-208a) |  |  |  | 0.0623 µM | 0.0528 µM | 0.0755 µM
GCGAGCGUACUUGCUACAUGAGGAUCACCCAUGUUCGUUGGACAGGAUAUGGUACCGUUUCGGUACCAGAAGGGUUCACAUGUA [JL SSNG3 3.77] (Eterna round: R96, puzzle: Same State NG 3) | 0.171 µM | 0.224 µM | 0.375 µM |  |  | 
GUAGCAUACCGAGGAUAUUCAUAUUAACAUGAGGAUCACCCAUGUUUAGGUCGAUUACGACCUUGGGAGAAGGCGGAAUGCUAC [Xeonanis - 20 Mod33] (Eterna round: R96, puzzle: Same State NG 2) | 0.0123 µM | 0.0154 µM | 0.0255 µM |  |  | 
AAUUUAAUACAUGAGGAUCACCCAUGUAAAUUAAUUAAGAUCAAGGAUAUCAGCUCGAUUAGAGCUGAGAAGGUGAUCACAUGU [SSNG3/19-A2] (Eterna round: R96, puzzle: Same State NG 3) |  | 0.307 µM |  |  |  | 

— the supplement of paper PMC9170038
